Data from the supplement of paper PMC10567573.
± gives the standard deviation.

Experiment: protein stability index of a GFP-peptide fusion (GPS, HEK-293T) (PSI 1-6); higher = more stable
[1] = treatment: DMSO, c terminus: a fixed tail appended
[2] = treatment: MLN4924 1 uM, 8 h, c terminus: a fixed tail appended
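Note: 24-mer peptide tiles fused after GFP, lentivirally expressed, FACS-sorted into six equal bins by GFP/DsRed ratio, decoded by Illumina sequencing, PSI is the read-weighted mean bin number.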

Sequence	protein stability index [1]	protein stability index [2]	protein stability index (treatment: DMSO, c terminus: native)	protein stability index (treatment: MLN4924 1 uM, 8 h, c terminus: native)
EGGWWKAISLSTGRESYIPGICVA [SLA]	2.03 ± 0.91	2.05 ± 0.52		
EMQLSEVQIKTWFQNRRMKHKRQM [VENTX]	3.26 ± 0.16	3.19 ± 0.37		
KLEPIKSRAPQLHLEYRFYKQLGS [CSNK1G1]	2.06 ± 0.76	2.27 ± 0.21		
SLSAALLTAALLTFDTGCLTLSQY [POMT2]	3.29 ± 0.32	3.11 ± 0.43		
WRFVLQRLVFLAAFVVYLETETLV [TSN]	2.68 ± 0.54	3.66 ± 0.17		
SAQAPPDSISLHQPCNPPAPAGDK [DMRTC1]	5.38 ± 0.13	5.28 ± 0.28		
CWQGDPRVRPTFQEITSETEDLCE [RIPK4]	4.44 ± 0.67	4.72 ± 0.24		
KEYAAKFIKKRRLSSSRRGVSREE [DAPK3]	4.15 ± 0.15	4.379 ± 0.041		
MESKEKRAVNSLSMENANQENEEK [BEX1]	5.5 ± 0.25	5.52 ± 0.23		
KSTSIQVIVKEGGLKLIQIQDNGT [MLH1]	2.18 ± 0.53	2.54 ± 0.56		
AAGEPLECPTCGHSYNVTQRRPRV [RNF208]	3.79 ± 0.16	4.18 ± 0.21		
QARLLNPSATRAKPGPQDTVERPF [NOP53]	4.78 ± 0.24	4.85 ± 0.14		
RYTQGTGGDEVDDSVSVNDIDLSL [ZC3H15]	5.27 ± 0.29	4.89 ± 0.13		
KGALQKKPLYVAFSFMYILVGLTV [KCNK9]	3.46 ± 0.47	2.85 ± 0.51		
ALSFTLLGSAPLDQEPLLSIDLGT [NEK8]	2.29 ± 0.36	2.44 ± 0.23		
LSCLHSVCEQCLQILYESCPKYKF [RNF208]	2.2 ± 0.25	2.35 ± 0.51		
FSHSGRYIMTRDYLTVKVWDLNME [PPP2R2B]	2.63 ± 0.49	2.3 ± 0.38		
AESDYSNNIMKCRSRYDGHRIWMY [LOXL2]	2.4 ± 0.29	2.1 ± 0.38		
FDDCLYALCVVDTIKRSSQTGEWQ [GFOD1]	2.09 ± 0.42	2.29 ± 0.25		
RESERRNHSLARHADILAAVETRL [FBXO28]	3.71 ± 0.15	3.9 ± 0.27		
ERLQAIAEKRKRQAEIENKRRQLE [PALM]	3.74 ± 0.16	3.73 ± 0.27		
GYAVNVFDIQQGFDNPQVRFFLGD [NSDHL]	2.36 ± 0.38	2.57 ± 1.4		
KPVGRQACDLQPCPTEPPDDSCQD [ADAMTSL2]	5.46 ± 0.34	5.76 ± 0.075		

Sequence	protein stability index [1]	protein stability index [2]	protein stability index (treatment: DMSO, c terminus: native)	protein stability index (treatment: MLN4924 1 uM, 8 h, c terminus: native)
YATLDLNAVKYVSNIKFCSFHPLQ [PDS5B]	2.31 ± 0.68	2.18 ± 0.35		
SLKAPGARGPGPEGGGGGSYFSGQ [JUNB]	4.41 ± 0.45	4.67 ± 0.24		
MVHQRKLEAELLQIEERHQEKKRK [SMARCE1]	4.58 ± 0.34	4.36 ± 0.32		
DEIEFLKKLHEEELRDLQVSVESQ [PRPH]	3.58 ± 0.7	4.07 ± 0.36		
NQWETPPEDLQTDLAKLVDQQNPT [ZNF449]	5.36 ± 0.21	5.29 ± 0.26		
SFQDNLHNRKKHLNGLQHLKAKKV [ZMAT5]	3.51 ± 0.46	3.49 ± 0.23		
VWFGGREHVLMFAKLALYPCASLL [TMEM175]	2.77 ± 0.26	3.18 ± 0.27		
RYEEANNNQYSEGVQREAQRIALR [KMT2E]	4.3 ± 0.25	4.59 ± 0.2		
NTNVLSRDLIPPHVNFSHLTTKDY [SLC6A17]	3.49 ± 0.37	3.87 ± 0.12		
GPSRPAEKPPRPEAKSAQPADGWK [GCH1]	5.17 ± 0.082	5.16 ± 0.18		
AAKQNHVTADDFVQTSVIGSNGYI [EHMT1]	3.56 ± 0.17	3.68 ± 0.1		
HTPQSSVKTSVPSSKSSGDLVDLF [CLINT1]	4.03 ± 0.16	4.26 ± 0.053		
LSFYNARTKQVLHTFKTRFTQPLL [FSD1]	2.45 ± 0.6	2.43 ± 0.6		
AGGAPGSPIPSPPGPGDDLCSDLE [HES6]	5.51 ± 0.45	5.34 ± 0.4		
FGGVLEYFMIQALNQKTSEKMKKR [RHOBTB3]	2.14 ± 0.66	2.24 ± 0.25		
FLVAEWNEPSINFYKRRGASDLSS [SAT1]	2.32 ± 0.28	2.43 ± 0.45		
QLIDPDENKENEAFEFKKPVRPVS [CDC25A]	3.59 ± 0.41	4.03 ± 0.27		
YQSKGYNDDYYEESYFTTRTYGEP [EMD]	2.78 ± 0.2	3.22 ± 0.29		
FRNAASTLTERPCYNRRASKLTY [ANKRD40]			3.26 ± 0.21	3.16 ± 0.39
LFAFMLVYPKEFHLNRGNHEDHMV [PPEF2]	3.03 ± 1	2.32 ± 0.35		
SCDLPEERYRHEIAHDGQRIYVLG [KLHDC10]	3.81 ± 0.17	3.75 ± 0.25		
TLQPPEFLYSHGVPRTLSPHQYHS [TBX5]	2.83 ± 0.14	3.06 ± 0.12		
DGLREQLQAPVPPDSVPSLQNMGL [PBXIP1]	4.45 ± 0.1	4.4 ± 0.15		

Sequence	protein stability index [1]	protein stability index [2]	protein stability index (treatment: DMSO, c terminus: native)	protein stability index (treatment: MLN4924 1 uM, 8 h, c terminus: native)
FDRNADGYIDPEELAEIFRASGEH [TNNC2]	5.32 ± 0.21	5.25 ± 0.2		
RRPSPVLRHLELLDEFARENIDSL [SCNN1D]	3.31 ± 0.51	3.56 ± 0.38		
VEVGDKTHWAVGVCRDSVSRKGEL [TRIM39]	3.06 ± 0.15	3.2 ± 0.17		
GVITTTPTPPGQYFYPRGGGSGGG [JUNB]	4.14 ± 0.16	4.26 ± 0.095		
IDQWKNKIWPEIKVPRPDALDNES [RETREG3]	4.14 ± 0.24	4.3 ± 0.27		
LGNVAEVKELRPQLMTSQFISVFS [ZER1]	2.55 ± 0.3	2.34 ± 0.28		
VRELRIAFREFDRDRDGRITVAEL [CABP4]	2.7 ± 0.49	2.98 ± 0.17		
ARYAQQKHRIRRVLIVDWDVHHGQ [HDAC6]	2.33 ± 0.19	2.31 ± 0.42		
VTKSPEKRSSLPRPSSILPPRRGV [MAP2]	4.58 ± 0.16	4.72 ± 0.19		
EILTKESNVQEVRCPVTVCGDVHG [PPP2CA]	3.69 ± 0.57	3.79 ± 0.12		
ACFLVRGLLLRGAVDGILHMFTPK [SLC6A17]	2.39 ± 0.73	2.83 ± 1.2		
HTGDKPYKCAECGKSFCHSTHLTV [ZNF8]	3.8 ± 0.12	3.85 ± 0.36		
TATMKDLEAEVKDTTRVENLIKSE [R3HDM1]	5.36 ± 0.17	5.46 ± 0.23		
FCVALSDYDLVLAEDEEMNRMHES [GNAI1]	3.52 ± 0.41	3.43 ± 0.28		
HTSVVCYLLDYPNNLLSAPPPDVT [ANKRD17]	2.46 ± 0.39	2.26 ± 0.44		
HMGTNVIVANTMPTHLSNGQMSTP [HNF4A]	3.6 ± 0.18	3.66 ± 0.33		
DRDPNSLLISCAVSYRGAWWYRNC [TNXB]	2.83 ± 0.24	2.77 ± 0.98		
LDGLIQQCGETMKETVNVKTVCGY [GMCL1]	3.1 ± 0.33	3.37 ± 0.36		
VELGKQKKKYMPYNHQHKYFFLIG [FADS1]	2.29 ± 0.94	3.12 ± 0.48		
TTLLRRYNIPHGPVVGSTRRLYEK [EMD]	3.14 ± 0.16	3.25 ± 0.15		
NVNVTLLSKQAKFAYKDEYEKFKL [TMEM120A]	2.9 ± 0.15	2.82 ± 0.23		
FAAEARYPIYVIPEPPPVSFQPYH [TENT5D]	2.24 ± 0.22	2.26 ± 0.34		
KTIKRPFGVKYNPYTRSIQILKDT [TPH1]	2.35 ± 0.2	2.19 ± 0.22		

Sequence	protein stability index [1]	protein stability index [2]	protein stability index (treatment: DMSO, c terminus: native)	protein stability index (treatment: MLN4924 1 uM, 8 h, c terminus: native)
GPQPTMEGDVLDTLEALGYKGPLL [FAM98B]	4.18 ± 0.32	4.07 ± 0.38		
PEEVKSLDSNGAGEKSENNSSNSD [BCL2L13]	5.84 ± 0.15	5.6 ± 0.23		
RVVCGIDSSMILTVPGQALACGSN [NEK8]	2.73 ± 0.12	2.52 ± 0.29		
VELLPPAPKGKGRKPAAGAQSAGT [BRD3]	4.58 ± 0.3	4.87 ± 0.42		
RSCTPNAEVRHEIQDGTIHLYIYS [KMT2E]	2.1 ± 0.33	2.57 ± 0.33		
DAQGSEMVTCKSEFYHDEFKRWIY [GAN]	2.61 ± 0.46	2.52 ± 0.13		
SAESSGCNSHMPYGYAAQARARER [KCNA4]	4.43 ± 0.35	4.63 ± 0.2		
EDDDWGEDTTEEAQRRRMDEISDH [EIF5]	5.59 ± 0.24	5.34 ± 0.18		
MLIFWTITLFLLGAAKGKEVCYED [PNLIPRP1]	3.72 ± 0.18	3.3 ± 0.69		
RTRRLGNMKNGANDVKHHRWFRSV [PRKX]	3.17 ± 0.39	3.14 ± 0.38		
PSLEDLFDLCDRTFSLKTVLMIAI [CSNK1G3]	2.5 ± 0.42	2.38 ± 0.43		
SDGRQDSPAGELPKTVQQPTESEP [MATN2]	5.51 ± 0.24	5.57 ± 0.35		
FGIDVKEVDPTGHSFVLVTSLGLT [MAGEA10]	2.43 ± 0.55	2.28 ± 0.59		
ERNFWDPSPQLDTQQEIKLCQKSN [WDR41]	3.92 ± 0.34	3.94 ± 0.37		
YYEMGIHCWDVAGAGIIVTEAGGV [IMPA1]	2.21 ± 0.34	2.03 ± 0.37		
MQELTEMLGFRPYRFYFYMWKFVS [SLC6A17]	2.39 ± 0.21	2.35 ± 0.35		
VTNPHSSQWKDPALSQLICFCRES [GADD45A]	2.5 ± 0.24	2.67 ± 0.33		
CAERLQSEEQVSKNLFGPPLESAF [FCHO1]	3.36 ± 1.1	3.58 ± 0.52		
WEQKVLVIVMTTRFEEGGRRKCGQ [PTPN9]	2.28 ± 0.2	2.28 ± 0.34		
LERVRVSCTIIFLASIFQLAMWTT [TMEM175]	3.24 ± 0.4	3.29 ± 0.23		
